Reference: patent US20240383994A1 (CHIA TAI TIANQING PHARMACEUTICAL GROUP, published 2024)

T1: CynoCD40-His protein (Acro, Cat. No.: CD0-C52H6) (cynomolgus monkey, UniProt P25942 21-193 (human entry))
T1 construct: Bought protein; also called cynomolgus monkey CD40 antigen; not shown: His tag
T1 chain: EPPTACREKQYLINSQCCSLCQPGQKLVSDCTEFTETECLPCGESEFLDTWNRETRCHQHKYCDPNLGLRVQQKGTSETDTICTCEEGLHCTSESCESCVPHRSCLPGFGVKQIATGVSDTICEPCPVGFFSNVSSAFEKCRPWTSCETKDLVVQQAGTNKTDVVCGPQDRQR


Key:
[1] = biological target: T2, human CD40 (hCD40), full length, on cells (human, UniProt P25942 21-277); test: cell-based or functional assay
[2] = biological target: T3, hCD40-His protein (Acro, Cat. No.: CD0-H5228) (human, UniProt P25942 21-193); test: BLI (Fortebio Octet RED96e), antibody captured on AHC sensor, antigen 1.56-100 nM, 1:1 model
T3 construct: Bought protein; also called human CD40 antigen; not shown: His tag
Protocol: (§1) The affinity of humanized anti-CD40 antibodies to an hCD40-His protein (Acro, Cat. No.: CD0-H5228) and a CynoCD40-His protein (Acro, Cat. No.: CD0-C52H6) was detected by a ForteBio molecular interaction system. Firstly, an AHC biosensor (Fortebio, Cat. No.: 18-5060) was activated, and then immersed in an anti-CD40 antibody solution at a final concentration of 5 μg/mL to capture the antibodies. Serially 2-fold diluted hCD40-His protein and CynoCD40-His protein in a final concentration range of 1.56 nM-100 nM were then […] the AHC biosensor. The response signals were detected in real time on a Fortebio molecular interaction system (Fortebio Octet RED96e) to give association and dissociation curves. After the completion of dissociation in each cycle, the AHC biosensor was regenerated for the next capture; the procedure was repeated until the affinity of the different antibodies for CD40 was determined. The resulting data were analyzed by Fortebio Data Analysis 11.0 software using a 1:1 (Langmuir) binding model to determine the Kₐ (Kₒₙ) and Kd (Kdis) values, and the dissociation constant KD was calculated by KD=Kd/Kₐ. See www.fortebio.com for more detailed detection procedures and related information.

[3] = biological target: T2, human CD40 (hCD40), full length, on …; test: cell-based or functional assay; remark: listed apart in the source
hCD40-mFc = biological target: T4, hCD40-mFc (human); test: flow cytometry, blocking of hCD40-mFc (2 µg/mL) binding to CHO-K1-hCD40L cells
T4 construct: Prepared in-house in CHO cells; also called human CD40 recombinant protein containing a mouse antibody heavy chain Fc; Human CD40-mFc
Protocol: A CHO-K1-hCD40L cell suspension and a CHO-K1-CynoCD40L cell suspension at a cell concentration of 3×10⁵ cells/mL were separately added into a 96-well U-bottom plate at 100 μL/well. An hCD40-mFc protein at a final concentration of 2 μg/mL (prepared in-house, SEQ ID NO: 64) or a cynoCD40-mFc protein at a final concentration of 2 μg/mL (prepared in-house, SEQ ID NO: 65) was added correspondingly, before serially 2-fold diluted anti-CD40 antibodies in a final concentration range of 312.5 ng/ml-40000 ng/ml were added. The mixture was mixed well, and then incubated at 4° C. for 1 h. The cells were washed with PBS containing 2% of FBS, and then a PE-conjugated goat anti-mouse IgG (H+L) antibody (Abcam, Cat. No.: ab97041) diluted at a volume ratio of 1:500 was added, and the mixture was incubated at 4° C. for 0.5 h. The cells were washed with PBS containing 2% of […], and then resuspended in PBS containing 2% of FBS. The fluorescence signals were detected on a flow cytometer (Sartorius IQue3). The activity of anti-CD40 antibodies to block the binding of CHO-K1-hCD40L cells to an hCD40-mFc protein and CHO-K1-cynoCD40L cells to a cynoCD40-mFc protein was analyzed by the mean fluorescence intensity (MFI) of staining, and the IC₅₀ value was calculated by GraphPad Prism software.

[4] = biological target: T2, human CD40 (hCD40), full length, on …; test: flow cytometry (MFI) on 293T-hCD40-NFκB cells, PE anti-human IgG detection
[5] = biological target: T1, CynoCD40-His protein (Acro, Cat. No.: …); test: BLI (Fortebio Octet RED96e), antibody captured on AHC sensor, antigen 1.56-100 nM, 1:1 model
Protocol: as §1

[6] = biological target: T2, human CD40 (hCD40), full length, on …; test: cell-based or functional assay; remark: listed apart in the source

Binder	IC50, inhibition of Ramos cell apoptosis induced by CD40L and IL-4 [1] [pM]	Inhibition, % of Ramos cell apoptosis at 0.0128 ng/mL [1] [%]	Inhibition, % of Ramos cell apoptosis at 0.064 ng/mL [1] [%]	Inhibition, % of Ramos cell apoptosis at 0.32 ng/mL [1] [%]	Inhibition, % of Ramos cell apoptosis at 1.6 ng/mL [1] [%]	Inhibition, % of Ramos cell apoptosis at 8 ng/mL [1] [%]	Inhibition, % of Ramos cell apoptosis at 40 ng/mL [1] [%]	Inhibition, % of Ramos cell apoptosis at 200 ng/mL [1] [%]	Inhibition, % of Ramos cell apoptosis at 1000 ng/mL [1] [%]	Kd [2] [pM]	koff [2] [s⁻¹]	kon [2] [M⁻¹ s⁻¹]	IC50 (read off the curve); NF-κB luciferase reporter (RLU), 293T-hCD40-NFκB cells co-cultured 1:1 with CHO-K1-hCD40L cells [3] [ng/mL]	IC50 (hCD40-mFc) [pM]	EC50 (read off the curve) [4] [ng/mL]	Kd [5] [pM]	koff [5] [s⁻¹]	kon [5] [M⁻¹ s⁻¹]	MFI value (CD95 on Ramos cells), Fc crosslinking with anti-human IgG Fcγ antibody, 1 µg/mL antibody [6] [MFI]	MFI value (CD95 on Ramos cells), Fc crosslinking with anti-human IgG Fcγ antibody, 10 µg/mL antibody [6] [MFI]
Chi-B01 (antibody, human IgG4 S228P, kappa, V domains shown, also called chimeric B01) VH: QIQLVQSGPELKKPGETVKISCKASGYTFTNYGMNWVKQAPGKGLKWMGWINPYTGEPTYADDFKGRFAFSVETSASTAYLQINNLKNEDTATYFCARKPPFDYWGQGTTLTVSS VL: DIVMTQAAPSVPVTPGESVSISCRSSKSLLHSNGNTYLYWFLQRPGQSPQILIYRVSNLASGVPDRFSGSGSGTAFTLRISRVEAEDVGVYYCMQHVEYPFTFGSGTKLEIKR	30.1	-24	-33	-12	2	55	93	96	93	7660	0.00246	321000								
Chi-B02 (antibody, human IgG4 S228P, kappa, V domains shown) VH: EVQLQQSGPELVKPGASVKMSCKASGYTFTSYVMYWVKQKPGQGLEWIGYVNPYNDGTNYNEKFKGKATLTSDKSSSTAYMELSSLTSEDSAVYYCARGAMDYWGQGTSVTVSS VL: DIVMTQAAPSVPVTPGESVSISCRSSKSLLHSQGNTYLYWFLQRPGQSPQILIYRVSNLASGVPDRFSGSGSGTAFTLRISRVEAEDVGVYYCMQHVEYPFTFGSGTKLEIKR	27.5	-18	-16	-5	5	59	92	88	75											
hzA01-1.2 (antibody, human IgG4 S228P, kappa, V domains shown, Humanized A01; also called hzA01L1 + hzA01H2) VH: QVQLVESGGGVVQPGRSLRLSCAASGFSLPTSGVHWVRQAPGKGLEWVAVIWAGGDTNYADSVKGRFTISRDNSKNTVYLQMNSLRAEDTAVYYCLGHGHFDVWGQGTLVTVSS VL: DIQMTQSPSSLSASVGDRVTITCRSSQSLVHSSGNTYLQWYQQKPGKAPGLLIYKVSNRFSGVPSRFSGSGSGTDFTLTISSLQPEDFATYYCSQTTHVPWTFGQGTKVEIKR										59900	0.0484	808000								
hzA01-2.2 (antibody, human IgG4 S228P, kappa, V domains shown, Humanized A01; also called hzA01L2 + hzA01H2) VH: QVQLVESGGGVVQPGRSLRLSCAASGFSLPTSGVHWVRQAPGKGLEWVAVIWAGGDTNYADSVKGRFTISRDNSKNTVYLQMNSLRAEDTAVYYCLGHGHFDVWGQGTLVTVSS VL: EIVLTQSPGTLSLSPGERATLSCRSSQSLVHSSGNTYLQWYQQKPGQAPRLLIYKVSNRFSGIPDRFSGSGSGTDFTLTISRLEPEDFAVYYCSQTTHVPWTFGQGTKVEIKR										113000	0.101	893000								
hzA01-3.1 (antibody, human IgG4 S228P, kappa, V domains shown, Humanized A01; also called hzA01L3 + hzA01H1) VH: QVQLQESGPGLVKPSETLSLTCTVSGFSLPTSGVHWIRQPPGKGLEWIGVIWAGGDTNYNPSLKSRVTISKDNSKNQVFLKLSSVTAADTAVYYCLGHGHFDVWGQGTLVTVSS VL: DVVMTQSPLSLPVTLGQPASISCRSSQSLVHSSGNTYLQWYLQRPGQSPGLLIYKVSNRFSGVPDRFSGSGSGTDFTLKISRVEAEDVGVYYCSQTTHVPWTFGQGTKLEIKR										366	0.000601	1.64e+06	~0.6	22800	~2	365	0.000686	1.88e+06		
hzA01-2.1 (antibody, human IgG4 S228P, kappa, V domains shown, Humanized A01; also called hzA01L2 + hzA01H1) VH: QVQLQESGPGLVKPSETLSLTCTVSGFSLPTSGVHWIRQPPGKGLEWIGVIWAGGDTNYNPSLKSRVTISKDNSKNQVFLKLSSVTAADTAVYYCLGHGHFDVWGQGTLVTVSS VL: EIVLTQSPGTLSLSPGERATLSCRSSQSLVHSSGNTYLQWYQQKPGQAPRLLIYKVSNRFSGIPDRFSGSGSGTDFTLTISRLEPEDFAVYYCSQTTHVPWTFGQGTKVEIKR										1760	0.00255	1.45e+06	~0.6			1500	0.00282	1.88e+06		
hzA01-1.1 (antibody, human IgG4 S228P, kappa, V domains shown, Humanized A01; also called hzA01L1 + hzA01H1) VH: QVQLQESGPGLVKPSETLSLTCTVSGFSLPTSGVHWIRQPPGKGLEWIGVIWAGGDTNYNPSLKSRVTISKDNSKNQVFLKLSSVTAADTAVYYCLGHGHFDVWGQGTLVTVSS VL: DIQMTQSPSSLSASVGDRVTITCRSSQSLVHSSGNTYLQWYQQKPGKAPGLLIYKVSNRFSGVPSRFSGSGSGTDFTLTISSLQPEDFATYYCSQTTHVPWTFGQGTKVEIKR										808	0.00101	1.25e+06	~0.3			576	0.000923	1.6e+06		
hzA01-3.4 (antibody, human IgG4 S228P, kappa, V domains shown, Humanized A01; also called hzA01L3 + hzA01H4) VH: QVQLKESGPGLVKPSETLSLTCTVSGFSLPTSGVHWIRQPPGKGLEWIGVIWAGGDTNYNSALMSRVTISKDNSKSQVFLKMSSVTAADTAVYYCLGHGHFDVWGQGTLVTVSS VL: DVVMTQSPLSLPVTLGQPASISCRSSQSLVHSSGNTYLQWYLQRPGQSPGLLIYKVSNRFSGVPDRFSGSGSGTDFTLKISRVEAEDVGVYYCSQTTHVPWTFGQGTKLEIKR										264	0.000454	1.72e+06	~0.6	19800	~2	262	0.000532	2.03e+06		
CP-870893 (antibody, human IgG2, kappa, V domains shown) VH: not shown VL: DIQMTQSPSSVSASVGDRVTITCRASQGIYSWLAWYQQKPGKAPNLLIYTASTLQSGVPSRFSGSGSGTDFTLTISSLQPEDFATYYCQQANIFPLTFGGGTKVEIKR																			136000	135000
Chi-B03 (antibody, human IgG4 S228P, kappa, V domains shown) VH: EVKLVESGGGLVQPGGSLRLSCATSGFTFSDFYMEWVRQPPGKRLEWIAASRDKANDYTTEYSPSVQGRFIVSRDSSQSILYLQMNALRTEDTAIYYCARDVGRSYALDYWGQGTSVTVSS VL: QVVLTQSPAIMSASPGEKVTMTCSASSSVTYMHWYQQKSGTSPKRWIYVTSKLASGVPTRFSGSGSGTSYSLTISSMEAEDAATYYCQQWSRKPPTFGAGTKLELKR	11.9	-10	-8	16	31	90	90	84	70											
